Results: US20090311265A1

Target: HA of BPL-inactivated virus preparation of strain A/New Caledonia/20/99 (H1N1) (influenza A virus A/New Caledonia/20/99 (H1N1))
Assay: ELISA, coated inactivated virus, IgG 5 µg/ml

B1: CR6329 (antibody, V domains shown)
VH: EVQLVQSGAEVKKPGSSVKVSCKASGGIFRSNSISWVRQAPGQGLEWMGGIFALFGTTDYAQKFQGRVTITADESSTTVYLELSSLTSEDTAVYYCARGSGYTTRNYFDYWGQGTLVTVSS
VL: EIVLTQSPGTLSLSPGERATLSCRASQSVSSNYLGWYQQKPGQAPRLLIYGASSRASGIPDRFSGGGSGTDFTLTISRLEPEDFAVYYCQQYGSSPLTFGGGTKVEIKR
Which OD 492 nm does the source give for B1 here?
Its OD 492 nm is 1.04 OD 492 nm.
